The values below come from US20090162378A1.

For test [1], the target named is HCMV RC256 particles (human cytomegalovirus strain RC256) (human cytomegalovirus). As to the kind of experiment: cell-based or functional assay.
Test [2] shares this target. The test is described as follows: phage ELISA; plate coated with HCMV RC256 against a control plate coated with lysate of E. coli transfected with pET-22b; detection with HRP anti-M13.

B1: HCMV-20 scFv antibody, purified His-tag fused polypeptide expressed in E. coli (scFv)
scFv: MAQVQLQESGPGLVKPSGTLSLTCAVSGGSISSSNWWSWVRQPPGKGLEWIGEIYHSGSTNYNPSLKSRVTISVDKSKNQFSLKLSSVTAADTAVYYCAREGSYEAFDYWGQGTLVTVSSGGGGSGGGGSGGGGSNFMLTQPHSVSESPGKTVTISCTRSSGSIASNYVQWYQQRPGSAPSTVIYDDNQRPSGVPDRFSGSIDSSSNSASLTISGLKTEDEADYYCQSYDSSNHGVVFGGGTKLTVLGAA
In test [1], B1 came in with a plaque number, Test 1, 1.0 uM HCMV-20 (virus only: 152) of 92 plaques; a plaque number, Test 1, 2.0 uM HCMV-20 (virus only: 152) of 36 plaques; a plaque number, Test 1, 4.1 uM HCMV-20 (virus only: 152) of 23 plaques; a plaque number, Test 1, 8.1 uM HCMV-20 (virus only: 152) of 20 plaques. Moreover, in test [1], the plaque number, Test 1, 16.3 uM HCMV-20 (virus only: 152) amounted to 15 plaques; the plaque number, Test 2, 1.0 uM HCMV-20 (virus only: 139) came to 93 plaques; the plaque number, Test 2, 2.0 uM HCMV-20 (virus only: 139) was 42 plaques; the plaque number, Test 2, 4.1 uM HCMV-20 (virus only: 139) was 17 plaques. In test [1], this molecule had a plaque number, Test 2, 8.1 uM HCMV-20 (virus only: 139) of 16 plaques and a plaque number, Test 2, 16.3 uM HCMV-20 (virus only: 139) of 16 plaques.

B2: HCMV-20 scFv antibody displayed on phage (positive phage clone from the mixed scFv phage display library) (scFv)
scFv: MAQVQLQESGPGLVKPSGTLSLTCAVSGGSISSSNWWSWVRQPPGKGLEWIGEIYHSGSTNYNPSLKSRVTISVDKSKNQFSLKLSSVTAADTAVYYCAREGSYEAFDYWGQGTLVTVSSGGGGSGGGGSGGGGSNFMLTQPHSVSESPGKTVTISCTRSSGSIASNYVQWYQQRPGSAPSTVIYDDNQRPSGVPDRFSGSIDSSSNSASLTISGLKTEDEADYYCQSYDSSNHGVVFGGGTKLTVLGAA
In the case of B2, the HCMV/control (ELISA signal ratio) in test [2] was over 8.
